THAP1 transcriptional activity data for 83 variants are collected here from the supplement of paper PMC11811203.

B1: THAP1; numbered along this chain (parent)
chain: MVQSCSAYGCKNRYDKDKPVSFHKFPLTRPSLCKEWEAAVRRKNFKPTKYSSICSEHFTPDCFKRECNNKLLKENAVPTIFLCTEPHDKKEDLLEPQEQLPPPPLPPPVSQVDAAIGLLMPPLQTPVNLSVFCDHNYTVEDTMHQRKRIHQLEQQVEKLRKKLKTAQQRCRRQERQLEKLKEVVHFQKEKDDVSERGYVILPNDYFEIVEVPA

In this data set the parent is B1. In words: THAP1 transcriptional activity (GFP+/GFP- enrichment relative to wild-type constructs) (ratio to WT); higher = more THAP1 activity (PSMB5 reporter activation). As to conditions: with PSMB5 promoter-GFP reporter. How it is done: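 Deep mutational scan of human THAP1. Site-saturation single amino acid variant library (residues 2-213) was expressed by lentivirus at MOI ~0.3 in THAP1-knockout HEK-293T cells carrying an endogenous PSMB5 promoter-GFP knock-in reporter. Five days post-transduction, BFP+ cells were FACS-sorted into GFP dim and GFP bright populations and variants were counted by Illumina sequencing. Activity is the GFP-bright/GFP-dim read fold change, mean of 2 replicates, divided by the mean fold change of wild-type (synonymous) constructs in the same screen pool; WT = 1.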
As to F81L, the THAP1 transcriptional activity is 0.224.

As for A213I, the THAP1 transcriptional activity turned out to be 0.974.

On to L27H, for which the THAP1 transcriptional activity was 0.0857. On to L27N, for which the THAP1 transcriptional activity worked out at 0.0759. Consider R13N, for which the THAP1 transcriptional activity was found to be 0.126. Next, K49M: 0.232. Then H57I, with 0.102; and H57Q, with 0.0983. Next, D191F: 0.695; D191L: 1.26.

Take I80F: the THAP1 transcriptional activity was found to be 0.463.

On to R175N, for which the THAP1 transcriptional activity stood at 0.379. Regarding R175F, the THAP1 transcriptional activity was determined as 0.33. Then R175T, with 0.382.

As for K34R, the THAP1 transcriptional activity amounted to 0.841. Next, K34Q: 0.971; N69S: 0.193; L71E: 0.221. Next, L71M: 0.941. Next, Q151I: 0.817. With E66V, the THAP1 transcriptional activity was found to be 0.638. Next, T125S: 0.95. With T125Q, the THAP1 transcriptional activity was 0.85. Then T125L, with 0.291; and T125F, with 0.212. Then C67V, with 0.777. In the case of P26K, the THAP1 transcriptional activity was determined as 0.155. In the case of P26Y, the THAP1 transcriptional activity was 0.208. Take A114Q: the THAP1 transcriptional activity was 0.985. Next, V20E: 0.148; V20T: 0.58; V20H: 0.115. Then V20R, with 0.261. Next, V20D: 0.128; S6F: 0.149; S6I: 0.183. Q124S: the THAP1 transcriptional activity turned out to be 0.576. Q124L: the THAP1 transcriptional activity came to 0.212. For the variant N136F, the THAP1 transcriptional activity was 0.279.

N136P: the THAP1 transcriptional activity was determined as 0.263.

Turning to N136L, the THAP1 transcriptional activity worked out at 0.102. Next, K158W: 0.457. In the case of K158F, the THAP1 transcriptional activity is 0.365.

For the variant L201A, the THAP1 transcriptional activity was 0.829. For L201W, the THAP1 transcriptional activity is 0.749.

Take S55I: the THAP1 transcriptional activity was 0.114. Next, S55M: 0.0662; C133E: 0.936; C133P: 0.267. Then C133D, with 0.73; and V109E, with 3.82.

Take V109C: the THAP1 transcriptional activity is 1.49. Then L177H, with 0.327; and L177V, with 0.404.

With E95K, the THAP1 transcriptional activity was determined as 1.66.

Turning to D88M, the THAP1 transcriptional activity came out at 0.615. Next, D88F: 0.918; Q187D: 0.783; K43D: 0.503. In the case of K43W, the THAP1 transcriptional activity turned out to be 0.278. In the case of K43T, the THAP1 transcriptional activity turned out to be 0.689. Next, K43V: 0.726; L129W: 1.7; L129F: 1.16.

With D141E, the THAP1 transcriptional activity amounted to 1.51.

With D141L, the THAP1 transcriptional activity amounted to 0.286. Then P86F, with 0.921. Next, G9D: 0.196; G9A: 0.209; I149F: 0.539. Then P108E, with 1.26; and E178C, with 0.927; and C10H, with 0.0737.

For D15M, the THAP1 transcriptional activity is 0.419. Then R29T, with 0.12; and R29V, with 0.177; and L82Q, with 1.59.

Take K24F: the THAP1 transcriptional activity worked out at 0.1. Next, K24Q: 0.0996. Next, L123F: 0.608; L123Y: 0.693; R41C: 0.763. Then R41M, with 0.475.
